From the supplement of paper PMC12764529 come the findings set out here.

A short description of the data set: folding stability dG unfold (combined trypsin and chymotrypsin); higher = more stable. The procedure:
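Folding stability of de novo designed mini-proteins (<80 aa, no Cys; designed by TrROS, TrMRF, ProteinMPNN and the joint model) was measured by cDNA display proteolysis with trypsin and chymotrypsin. Each protease was used at 11 concentrations in a threefold dilution series plus a no-protease condition. K50 was inferred by Bayesian fitting of sequencing counts, and dG unfold was derived against a sequence-predicted unfolded-state K50 (Tsuboyama et al. method). Sequences shown include variable-length N-terminal GS-type padding (SAGGSAGG...) inside a display construct carrying a PA tag. Rows were kept only if the AF2 dimer inter-PAE was >15, to exclude likely homo-oligomers.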
With “SAGGSAGGSAGKIEVETNPENNYMRVKITNPGNGKKIKIPVPNGNPSDARDKAKELILEFSAGGSAGGSAGG [r17_386_TrROS]”, the “folding stability dG unfold” value is < -1 kcal/mol.
The value for “SAGGSAGGSAGKRIIINMPAEQAIDWAREMLPPNQPIEIFNPDHGKTREFPIPPPSPDEKSAGGSAGGSAGG [r11_163_TrROS]” was < -1 kcal/mol; that for “SAGGSAGGSAGKTISLKELMKNGNPEKALEFLKKIKEANPKPKIKLIEIDENFDAKYDINSAGGSAGGSAGG [r11_365_TrMRF]” was < -1 kcal/mol.
In the case of “SAGGSAGGSAGLEIPPELTVTSTFTVPPSGRRVLELLNPATNEPVVLDLETGEIHPSEALSAGGSAGGSAGG [r11_268_JUSTAS]” it was < -1 kcal/mol.
The value for “SAGGSAGGSAGLLPPGARVRLTLRAPGEPEELEFTIPASVPSVEELIERHPPVLAVEVVGSAGGSAGGSAGG [r11_157_JUSTAS]” was < -1 kcal/mol.
As for “SAGGSAGGSAGMEEIKERYRKELEAEGRPVKEIKAEKLPPTNTIVVTLDFENKPIVIPLPSAGGSAGGSAGG [r11_279_JUSTAS]”, the “folding stability dG unfold” value is < -1 kcal/mol.
In the case of “SAGGSAGGSAGMKLEELAKEAEERYREEGGDAVIDLVVEREDDKKEPFILEIGKKGLKIESAGGSAGGSAGG [r11_954_TrMRF]” it was < -1 kcal/mol.
The value for “SAGGSAGGSAGMKTFTAPSGEKLVEVTIKTKNKEISVTVPPEEGGEAVAKKYGVSKKDIASAGGSAGGSAGG [r11_1039_JUSTAS]” was < -1 kcal/mol; that for “SAGGSAGGSAGMPVIEEKLVFYTGDGTPREKKVKVTTTPLPNGTTKKTYDIPKDEIKKLPSAGGSAGGSAGG [r11_816_JUSTAS]” was < -1 kcal/mol.
The value for “SAGGSAGGSAGMTPEEAEKEAAEKIKNELIAKGYPEAKVEVKSPVKVDEVNNTFTLDIDIKKSAGGSAGGSA [r18_517_JUSTAS]” was < -1 kcal/mol; that for “SAGGSAGGSAGMTVEVKKLSTPRYEKIITITTETTVKDPNSAKPLTTETVTTIERDEVSLSAGGSAGGSAGG [r17_124_JUSTAS]” was < -1 kcal/mol.
In the case of “SAGGSAGGSAGMVETTSEEEAAAVIAEARAAGVPVTLVLKNPDGTTVTTPVEVVVPPDAPSAGGSAGGSAGG [r17_462_JUSTAS]”, the “folding stability dG unfold” value is < -1 kcal/mol.
The value for “SAGGSAGGSAGMVRIKITHNNGRKNTFKIPPNITEVKEVEIKLPPELQDNITKVEIEPLDSAGGSAGGSAGG [r17_528_TrROS]” was < -1 kcal/mol; that for “SAGGSAGGSAGNVITFPDGYYIRVTGPGPREIPIPPENAEDFVDEISKLPGIQDIEIQPRSAGGSAGGSAGG [r11_587_TrROS]” was < -1 kcal/mol; that for “SAGGSAGGSAGPRVTLTPDPNSDYVLVTTYPGDGSSTTSNVPVSELEKVRKELPADFTLASAGGSAGGSAGG [r11_569_JUSTAS]” was < -1 kcal/mol.
On to “SAGGSAGGSAGPWKVITHTIDIPPGADELPIRLPGNGIEAKIMSVDPGNGTITVEIYVPDSAGGSAGGSAGG [r17_198_TrROS]”, for which the “folding stability dG unfold” value was < -1 kcal/mol.
In the case of “SAGGSAGGSAGSEELAKEIEDIAQEQGFPIKDVEIERNPPNGYYSIEVRHKGNPVTIPIPSAGGSAGGSAGG [r11_279_TrROS]”, the “folding stability dG unfold” value is < -1 kcal/mol.
In the case of “SAGGSAGGSAGSNKVSPVITLEEDPDGTVTRTVTLKINTPEGKTLTTTSTDPLSPDSALKRSAGGSAGGSAG [r3_180_JUSTAS]” it was < -1 kcal/mol.
The value for “SAGGSAGGSAGSTEIGVYKLEGTDKVLVLAKKPNGSEVPVEFPASVTPEEAVEKAKKVVSSAGGSAGGSAGG [r17_161_TrMRF]” was < -1 kcal/mol; that for “SAGGSAGGSAGSVAEALADKTITVTSPSSSTPYTATITPGADDTLRVGSPGSSGTDISVARLSAGGSAGGSA [r18_169_JUSTAS]” was < -1 kcal/mol.
In the case of “SAGGSAGGSAGTLDELKNAPPGEERTVRVDFQIYEMRPDPNGKPEMEPVSPMRMEITFKPSAGGSAGGSAGG [r11_36_TrROS]” it was < -1 kcal/mol.
On to “SAGGSAGGSAGTVTEKTSIPDPNSDNSLTVTKTPNSITMTNPKTGDVIISNNSTVTKIKKSAGGSAGGSAGG [r17_544_JUSTAS]”, for which the “folding stability dG unfold” value is < -1 kcal/mol.
The value for “SAGGSAGGSAGTVVVITPKNGEKFVFEAESSELPKIKEAFPELKIKDIDPGKGFIHVEVDSAGGSAGGSAGG [r17_22_TrMRF]” was < -1 kcal/mol; that for “SAGGSAGGSAGVDFFKAPDGSEYAVVVARGKDADIPVLTRVDDGNDALAERFGLPKEKIGSAGGSAGGSAGG [r11_1039_TrMRF]” was < -1 kcal/mol; that for “SAGGSAGGSAGVKEIADKFPGIKSIDVQRNKNGEQTVSIEHRSKGGPVKHTFPAEDLEPLSAGGSAGGSAGG [r17_116_TrROS]” was < -1 kcal/mol.
The value for “SAGGSAGGSAGVPPDAPEVVVTLTLRPPGPDTTVTLTVPAAELPPEAIPPGTVVERAVSPGASAGGSAGGSA [r18_21_JUSTAS]” was < -1 kcal/mol.
The value for “SAGGSAGGSAGWEMLRMIKENAKPGKPTTITIHPNFPMEEINKELIEDAPIDDVEYTPMPSAGGSAGGSAGG [r11_524_TrROS]” was < -1 kcal/mol; that for “SAGGSAGGSAGWFYRIEIPHPNGRKRTHYVPDPEEAEDELKEEFGIPPENVKIEPIPPNDSAGGSAGGSAGG [r17_169_TrROS]” was < -1 kcal/mol.
Take “SAGGSAGGSAGWKISVRMPDNGKPRRVPIEIPFDADDPQYFKEIANDLANDGIREVEIYPSAGGSAGGSAGG [r11_196_TrROS]”: the “folding stability dG unfold” value was < -1 kcal/mol.
In the case of “SAGGSAGGSAGWRVRVSFPNGNKIEIDEIPPDDEGMTPDQLADEIQKEFPGNGIEVEPVPSAGGSAGGSAGG [r17_42_TrROS]” it was < -1 kcal/mol.
Regarding “SAGGSAGGSAKIIVWGRTPEGAKEKAKEFADNIQKEMQENGMPPKNIKIPIEIFDPEAMPDSAGGSAGGSAG [r3_249_TrROS]”, the “folding stability dG unfold” value is < -1 kcal/mol.
Regarding “SAGGSAGGSAKTYIIPIKDLGPDENGKYHIDIAVEKVKKLFPDENITSVDIDGFEKIGELAESAGGSAGGSA [r18_72_TrMRF]”, the “folding stability dG unfold” value is < -1 kcal/mol.
In the case of “SAGGSAGGSAMDPDDQLPTIEEIAKKFGMDATIEPRRNPNGMPYRTATVQNNGGPVGEISIPSAGGSAGGSA [r18_369_TrROS]”, the “folding stability dG unfold” value is < -1 kcal/mol.
The value for “SAGGSAGGSAMSPSLPGKYEVLLTDPRPGVGPPVTRRVTLTPEEIEATIPPGAGREVVELPSAGGSAGGSAG [r3_223_JUSTAS]” was < -1 kcal/mol; that for “SAGGSAGGSAMTLLSEKEVPGTDLTIKYVEEKLPGERVIRTLTIKKNSVVEEKEFPVGELPSAGGSAGGSAG [r3_48_JUSTAS]” was < -1 kcal/mol.
With “SAGGSAGGSANFDINIEPHPDKDYLVITVTIPPGMPPGQKVRTWVIDPPDGKILEPEPIKIPDSAGGSAGGS [r12_564_TrROS]”, the “folding stability dG unfold” value is < -1 kcal/mol.
As for “SAGGSAGGSAPFTAKEAADYAAWKIQKRLKKEGNPDKEITIKAPIEWDPEDGIFRAKIQIEYSAGGSAGGSA [r18_517_TrROS]”, the “folding stability dG unfold” value was < -1 kcal/mol.
In the case of “SAGGSAGGSAPKPIERVEVGSFTLPPGRRVFPVRARIRGTGEVVVVATDGAPVEEVLKAVEASAGGSAGGSA [r18_345_TrMRF]” it was < -1 kcal/mol; in that of “SAGGSAGGSAREITIMVPPDDPNLTIEEAKDLLQPWGIKKVEIEPHPDGYYIVEIRVPPGLSAGGSAGGSAG [r3_335_TrROS]”, < -1 kcal/mol.
With “SAGGSAGGSASPKQVPITIEIQTPNKPRKITFPIPEGQEGGPEEIMDRLADDGNYKIDRITSAGGSAGGSAG [r3_31_TrROS]”, the “folding stability dG unfold” value was < -1 kcal/mol.
The value for “SAGGSAGGSASSTTVPLEIPAPEGAVVELTFPDGTTVKATVTPRPDGSYTLKVGNGEIVAPRSAGGSAGGSA [r18_372_JUSTAS]” was < -1 kcal/mol; that for “SAGGSAGGSASSTVLETEEEPVGKVTTEKVLVPRPDGTPVLRTKLVYRPKDGSLTSETTSLSAGGSAGGSAG [r3_94_JUSTAS]” was < -1 kcal/mol.
In the case of “SAGGSAGGSATIRPGEPIRIKIKYPNPDGKPQERTYNGNVPPGSTLEELADNFPGYKVEIEKSAGGSAGGSA [r18_279_TrROS]” it was < -1 kcal/mol; in that of “SAGGSAGGSDKEREVPIEVRYPNQPLKIPVEFKDEEDAPHKARSAIKPLMKKLPMVKIPKPDDSAGGSAGGS [r12_230_TrROS]”, < -1 kcal/mol.
The value for “SAGGSAGGSDPNIKVEIWHPNNGQPRTFPAGDSIDELAENMPGPVQIKIEYPGKEKTLMIPFKSAGGSAGGS [r12_1056_TrROS]” was < -1 kcal/mol; that for “SAGGSAGGSEIEIMAPFKSPEDARDQIREFAREKGLEIKPKKIEVHRNPNGWQWVTFKIEIKDSAGGSAGGS [r12_924_TrROS]” was < -1 kcal/mol.
For “SAGGSAGGSEKYRVRFPDGQPLPFPNGKSHPMKPGEEMEIESPEDKDRLKDHFPGFPVEVEPLSAGGSAGGS [r12_987_TrROS]”, the “folding stability dG unfold” value was < -1 kcal/mol.
For the sequence “SAGGSAGGSFEVHYDPEPNNLTIRMEFPGGRRTYRIPSADDVKDWFEDMGMPFKPMEITKIEPSAGGSAGGS [r12_834_TrROS]”, the “folding stability dG unfold” value was < -1 kcal/mol.
For the sequence “SAGGSAGGSGEFLSDLPPDWEVSTEPLPSDTVRYTVTAPTGPVSAVSLPVGDREVRTSATPPVSAGGSAGGS [r20_50_JUSTAS]”, the “folding stability dG unfold” value is < -1 kcal/mol.
In the case of “SAGGSAGGSGGLGGEPISVRTELVTVPVELEEEVLLPGGVPLPRRRTVERVVAVTTRVPPGAALSAGGSAGG [r6_526_JUSTAS]” it was < -1 kcal/mol; in that of “SAGGSAGGSGKKYILRFKNPEKARSFAKPLGLKVKPGDDLPVDDPEKFLKSLPLLKDIVVEDKSAGGSAGGS [r12_571_TrMRF]”, < -1 kcal/mol; in that of “SAGGSAGGSGMAVVEVDITGPTSTSEEEAQARAEALAAEIAAASDSADVRATVRFSRVPPELPSAGGSAGGS [r12_522_JUSTAS]”, < -1 kcal/mol.
The value for “SAGGSAGGSGSGSVTVPVTSTDPVTGKPSVSTVTVSLDVVPPPPVPATVFFDPVRGRRSTDLGGSAGGSAGG [r6_926_JUSTAS]” was < -1 kcal/mol.
